In PMC2813365:

B1: non-cognate 17bp (dsDNA)
DNA 1: TGTGCATAGTGGTGCGA
DNA 2: TCGCACCACTATGCACA
B2: cognate 8bp (dsDNA)
DNA 1: TGCATGCA
DNA 2: TGCATGCA

What was measured:
PF14_0633 AP2 domain [1] = target: T1, PF14_0633 AP2 domain (Plasmodium falciparum, UniProt Q8IKH2 63-123); assay: size exclusion chromatography
PF14_0633 AP2 domain [2] = target: T1, PF14_0633 AP2 domain; assay: X-ray crystallography

Row | Binder | binding result (PF14_0633 AP2 domain [1]) | binding result (PF14_0633 AP2 domain [2])
1 | B1 | binds | –
2 | B2 | – | binds
